Laboratory results taken from PMC3509656.
Changes are numbered by the printed parent chain.

Tests used:
Experiment in all cases: EMSA
Conditions in all cases: 40 mM Tris pH 7.6, 85 mM KCl, 19% glycerol, 4 mg/mL BSA, 0.5 mg/mL calf thymus DNA, 30 min at 30 C; 6% native PAGE in 0.5x TBE
[1] = target: T1, TorI-Y28F Y28F (Escherichia coli K-12 MG1655? (KplE1 prophage)) (UniProt Q2EES9)
T1 sequence: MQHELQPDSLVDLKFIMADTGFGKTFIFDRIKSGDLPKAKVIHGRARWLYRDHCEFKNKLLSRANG

[2] = target: T2, TorI-M17V M17V (Escherichia coli K-12 MG1655? (KplE1 prophage)) (UniProt Q2EES9)
T2 sequence: T1 sequence with M17V, F28Y

[3] = target: T3, TorI-A46V A46V (Escherichia coli K-12 MG1655? (KplE1 prophage)) (UniProt Q2EES9)
T3 sequence: T1 sequence with F28Y, A46V

[4] = target: T4, TorI-L61S L61S (Escherichia coli K-12 MG1655? (KplE1 prophage)) (UniProt Q2EES9)
T4 sequence: T1 sequence with F28Y, L61S

[5] = target: T5, TorI-F15L F15L (Escherichia coli K-12 MG1655? (KplE1 prophage)) (UniProt Q2EES9)
T5 sequence: T1 sequence with F15L, F28Y

[6] = target: T6, TorI-R45Q R45Q (Escherichia coli K-12 MG1655? (KplE1 prophage)) (UniProt Q2EES9)
T6 sequence: T1 sequence with F28Y, R45Q

[7] = target: T7, TorI-F22I F22I (Escherichia coli K-12 MG1655? (KplE1 prophage)) (UniProt Q2EES9)
T7 sequence: T1 sequence with F22I, F28Y

CATCGAGAAGGCGGTATGGTTTTTCTTTCGGCTTTGCTGCTTCAATCTGCTTAACGGTGAGCATGGGTAAAAATCCGGTGGGTAAAATTATTTTATCCACTTTTTACCCGTCATGGAGTGCGGCTGTCAACGATCTGAAGCGAACCATGACGAACTGTAAATCTACGGAATGCTTGATATTCAGGGGATTTTGCGGACTGGTACGGATGGGAGCGAACTGATAAATGGTGTCCCCTGCAGGAATCGAACCTGCAATTAGCCCTTAGGAGGGGCTCGTTATATCCATT (double strand) [KplE1 attL]
binding [1]: binds more weakly
binding [2]: binds more weakly
binding [3]: binds more weakly
binding [4]: binds
binding [5]: binds more weakly
binding [6]: binds more weakly
binding [7]: no binding
